Key:
[1] = molecular target: bacteriophage T5 capsid-like particles (T5 CLPs) (bacteriophage T5); assay: cryo-EM structure; pNO-decorated CLPs, 200 kV Glacios, icosahedral (I4) reconstruction from 10,449 particles, 5.8 Å
[2] = molecular target: bacteriophage T5 capsid-like particles (T5 CLPs) (bacteriophage T5)

Chain of pNO: N-terminal capsid-binding domain pN of pb10 fused at its C-terminal end with ovalbumin (Q6QGD6 whole entry, the tested form may be a part): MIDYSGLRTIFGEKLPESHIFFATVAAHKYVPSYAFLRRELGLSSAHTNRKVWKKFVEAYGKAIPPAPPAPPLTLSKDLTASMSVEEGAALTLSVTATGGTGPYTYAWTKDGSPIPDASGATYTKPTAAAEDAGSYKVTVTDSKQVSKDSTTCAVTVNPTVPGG
Chain of pO: full-length pb10 fused at its C-terminal end with ovalbumin (Q6QGD6 whole entry, the tested form may be a part): as above

Row | Substance | stoichiometry N (copies per capsid) [1] | anti-Ova IgG (ELISA) in sera of C57BL/6 mice after a single subcutaneous injection of CLP-bound pNO against pNO alone, days 14 to 192 post-injection [2] | anti-Ova IgG (ELISA) in sera of C57BL/6 mice after a single subcutaneous injection of CLP-bound pO against pO alone, days 14 to 192 post-injection [2]
1 | pNO: N-terminal capsid-binding domain pN of pb10 fused at its C-terminal end with ovalbumin (from UniProt Q6QGD6 1-73) | 120 | 1000 fold | –
2 | pO: full-length pb10 fused at its C-terminal end with ovalbumin (from UniProt Q6QGD6 1-164) | – | – | 1000 fold
